The target in experiment [1] is wild-type EGFR expressed on cells (human), P00533. As to the kind of experiment: flow cytometry, A431 cells. The settings on record: remark: other sources report otherwise. On the technique in general: Flow cytometry measures light scatter and fluorescence of single cells or particles in a stream.
Experiment [2] has the same target. In words: flow cytometry, F98-EGFRwt cells. Particulars: remark: other sources report otherwise.

B1: 11B11 (antibody, V domains shown)
VH: QVTLKESGPVLVKPTETLTLTCTVSGFSLSNAKMGVSWIRQPPGKALEWLAHIFSTDEKSIRRSLRSRLTMSKDTSKSQVVLTMTNMDPVDTATYYCVRDSSNYEGYFDYWGQGTLVTVSS
VL: EVLMTQSPATLSVSPGERATLSCRASQSVSTNFAWYQQRPGQAPRLLLFGASTRATGIPGRFSGSGSGTENILTISSLQSEDFAIYFCQQYKDWPFTFGPGSKVEIK
On to B1, for which the MFI in experiment [1] amounted to 589. In experiment [2], this molecule gave a % positive of 1.7% and an MFI of 187.

B2: 12B2 (antibody, V domains shown)
VH: QVTLKESGPVLVKPTETLTLTCTVSGFSLSNPRMGVSWIRQPPGKALEWLGHIFSSDEKSYRLSLRSRLSISKDTSKSQVVLTMTNMDPVDTATYYCVRDSSNYGGYFDYWGQGTLVTVSS
VL: EVVMTQSPATLSVSPGERATLSCRASQSVINNLAWYQQKPGQAPRLLIYGTSTRATDIPARFSGSGSGTEFTLTISSLQSEDFAVYYCQDYNNWPFTFGPGTKVDIK
Turning to B2, the % positive turned out to be 0.8% in experiment [1] and 1.5% in experiment [2]. For the same molecule, the MFI came to 571 in experiment [1] and 185 in experiment [2].

B3: 20E12 (antibody, V domains shown)
VH: EVNLVESGGGLVKPGGSLRLSCEASGFTFSYAWMSWVRQAPGKGLEWVGRIKSIADGGATDYAAPVRNRFTISRDDSRNTLYLEMHSLKTEDTAVYYCTTIPGNDAFDMWGQGTMVTVSS
VL: DIVLTQSPLSLSVTPGEPASISCRSSQSLLYSNGKNYLDWFLHKPGQSPQLLIYLGSNRASGVPDRFSGSGSGIDFILKISRVEAEDVGVYYCMQAQQTPITFGQGTRLEIK
In experiment [1], B3 showed a % positive of 2.6% and an MFI of 302. In experiment [2], this molecule gave a % positive of 3.4% and an MFI of 348.

B4: 20G5 (antibody, V domains shown)
VH: EVQLVESGGDLVKPGGSLRLSCAASGFTFTNAWMSWVRQAPGKGLEWVGRIKSKIDGGTTDYAAPVKGRFIISRDDSKNTLSLQMNSLKTEDTAMYYCTTAPGGPFDYWGQGSLVTVSS
VL: DIVLTQSPLSLPVTPGEPASISCRSSQSLLYSDRRNYLDWFLQKPGQSPHLLIYLGSYRASGVPDRFSGSGSGTDFTLKISRVEAEDVGVYYCMQALQIPITFGQGTRLEIK
Turning to B4, the MFI in experiment [1] is 391. In experiment [2], this molecule showed a % positive of 12.6% and an MFI of 1070.

B5: 26B9 (antibody, V domains shown)
VH: EVQLVESWGVLVKPGGSLRLSCAASGFIFNNAWMSWVRQAPGKGLEWIGRIKSKSDGGTTDYAAPVKDRFTISRDDSKDTLYLQMNGLKTEDTAVYFCTTAPGGPFDYWGQGTLVTVSS
VL: DIVLTQSPLSLPVTPGEPASISCRSSQSLLHRDGFNYLDWFLQKPGQSPQLLIYLASSRASGVPDRFSGSDSGTDFTLKISRVEAEDVGVYYCMQALQTPITFGQGTRLEIK
In the case of B5, the % positive in experiment [1] amounted to 1.7%; in experiment [2] it was 2.3%. The MFI in experiment [1] was 276; in experiment [2], 298.

B6: 20B9 (antibody, V domains shown)
VH: QVTLKESGPVLVKPTETLTLTCTVSGFSLSNARMGVSWIRQPPGKALEWLGHIFSTDEKSYSTSLRGRITISKDTSRGLVVLTLTNMDPVDTATYYCARDSSNYEGYFDFWGPGFLVTVSS
VL: EIVMTQSPATLSVSPGERATLSCRVSQSIGANLAWYQQKFGQAPRLLIYGASTRATGIPVRFSGGGSGTEFTLTISSLQSEDFAIYSCQQYIYWPFTFGPGTTVDIK
Consider B6, for which the MFI in experiment [1] was 558. In experiment [2], this molecule registered a % positive of 1.8% and an MFI of 189.

B7: 21E11 (antibody, V domains shown)
VH: QVTLKESGPVLVKPTETLTLTCTVSGFSLSNVRMGVSWIRQPPGKALEWFAHIFSSDEKSIRRSLRSRLTLSKDTSKSQVVLTMTNMDPVDTATYYCARDSSNYEGYFDFWGQGTLVTVSSN
VL: DMVVTQSPATLSVSPGERATLSCRASQSVGSDLAWYQQPPGQSPRLLIYGASTRATGVPARFSGSGSGTDFTLTITSLESEDFAVYYCQQYNDWPFTFGPGTKVDIK
As for B7, the MFI in experiment [1] is 555; in experiment [2] it was 184. In experiment [2], this molecule yielded a % positive of 1.3%.

B8: 11F10 (antibody, V domains shown)
VH: QVTLKESGPVLVKPIETLTLTCTVCGFSLSNPRMGVSWIRQPPGKALEWLGHIFSSDEKSYRLFLRSRLSISKDTSKSQVVLTMTNMDPVDTATYYCARDSSDYEGYFDYWGQGTLVTVSS
VL: EIVMTQSPATLSVSPGERTTLSCRASQSVGSNLAWYQQKPGQAPRLLIYGASTRASGVPARFSGSGSGTEFTLTISSLQSEDFAVYSCQEYNNWPFTFGQGTKVEIK
B8: in experiment [1], the % positive amounted to 1.1% and the MFI is 582. In experiment [2], this molecule showed a % positive of 1.6% and an MFI of 187.

B9: 29D5 (antibody, V domains shown)
VH: QVTLKESGPVLVKPTETLTLTCTVSGFSLSNPRMGVSWLRQPPGKALEWFAHIFSTDEKSYSPSLRGRLTVSKDTSKSQVVLTLTNMDPVDTATYYCARDSSNYEGYFDYWGQGTLVTVSS
VL: KIVMTQSPATLSVSPGERATLSCRANQIVSSNLAWYQQKPGQAPRLLVFGTSTRATGIPIRFSGSGSGTEFTLTVSSLQSEDFAVYVCQQYNDWPFTFGPGTKVDIK
In experiment [1], B9 registered a % positive of 0.4% and an MFI of 531. In experiment [2], this molecule yielded a % positive of 1.3% and an MFI of 185.

B10: 42G9 (antibody, V domains shown)
VH: QVTLKESGPVLLKPTETLTLTCTVSGFSLSNPRMGVSWIRQPPGKALEWFAHIFSTDEKSLKLSLRSRLTLSKDTSKSQVVLTMTNMAPVDSATYYCARDSSNYEGYFDFWGQGTLVTVSS
VL: EVVLTQSPATLSVSPGERATLSCRASQSVRSNLAWYQQKSGQAPRLLIYGSTIRATGVPARFSGSGSGTEFTLTISSLQSEDFAVYYCQQYSDWPFTFGPGTKVDIK
In experiment [1], B10 gave a % positive of 0.3% and an MFI of 538. Also, in experiment [2], the % positive was found to be 1.6% and the MFI came to 185.

B11: 19A9 (antibody, V domains shown)
VH: QVTLEESGPVLVKPTETLTLTCTVSGFSLSNARMGVSWIRQPPGKAPEWFAHIFSTDEKSLRLSLRSRLTLSKDTSKSQVVLTMTNMDPVDTATYYCARDSSNYEGYFDYWGQGTLVTVSS
VL: EVVMTQSPATLSVSPGERATLSCRASQSVNRNLAWYQQKPGQAPRLLIFGTSTRATGIPARFSGSGSGTEFTLTIDSLQSEHSGLYYCQQYNDWPFTFGPGTKVDIK
With B11, the MFI in experiment [1] is 578. In experiment [2], this molecule yielded a % positive of 1.6% and an MFI of 168.

B12: 46E10 (antibody, V domains shown)
VH: QVTLKESGPVLVKPTETLTLTCTVSGFSLSNARMGVSWIRQPPGKALEWLAHIFSTDEKSIRRSLRSRLTLSKDTSKSQVVLIMTNMDPVDTATYYCARDSSNYEGYFDYWGQGTLVTVSS
VL: EVVMTQSPPNLSVSPGERATLSCRASQSVTSNFAWYQQRPGQSPRLLLYGASTRATGVPGRFSGSGSGTENILTISSLQSEDFAVYFCQQYKDWPFTFGPGSKVDIK
Take B12: in experiment [1], the MFI worked out at 560. Besides, in experiment [2], the % positive turned out to be 1.6% and the MFI turned out to be 187.

B13: 12H6 (antibody, V domains shown)
VH: QVTLKESGPVLVKPTETLTLTCTVSGFSLSNARMGVSWIRQPPGKALEWLAHIFSTDEKSIRRSLRSRLTLSKDTSKSQVVLTMTNMDPVDTATYYCARDSSNYEGYFDYWGQGTLVTVSS
VL: EVVMTQSPATLSVSPGERATLSCRASQGVSSNFAWYQQRPGQSPRLLLYGASTRATGVPGRFSGSGSGTENILTISSLQSEDFAIYFCQQYKDWPFTFGPGSKVDIK
As to B13, in experiment [1], the % positive came to 0.8% and the MFI was found to be 569. In experiment [2], this molecule displayed a % positive of 1.9% and an MFI of 188.

B14: 14C11 (antibody, V domains shown)
VH: QVTLKESGPVLVKPTETLTLTCTVSGFSLNNARMGVSWIRQPPGKALEWFAHIFSTDEKSFRTSLRSRLTLSKDTSKSQVVLTMTNMDPVDTATYYCARDSSNYEGYFDYWGQGILVTVSS
VL: EIVMTQSPATLSVSPGERATLSCRASQSVSNNLAWYQQKPGQAPRLLIYGASTRATGVPARFSGSDSGTEFSLTISSLQSEDFAVYFCQQYKDWPFTFGPGTKVEIK
As for B14, the % positive in experiment [1] stood at 0.8%; in experiment [2] it was 1.3%. In addition, the MFI in experiment [1] stood at 580; in experiment [2], 185.

B15: 21E7 (antibody, V domains shown)
VH: QVTLEESGPVLVKPTETLTLTCTVSGFSLSNARMGVSWIRQPPGKAPEWFAHIFSTDEKSLRLSLRSRLTLSKDTSKSQVVLTMTNMDPVDTATYYCARDSSNYEGYFDYWGQGTLVTVSS
VL: DVVLTQSPATLSVSPGERATLSCRASQSVNSNLAWYQQNPGQAPRLLIFGSSTRATGIPASFSGSGSGTEFTLTINSLQSEHSAVYYCQQYNDWPFTFGPGTKVDIK
Take B15: in experiment [1], the % positive worked out at 1.1% and the MFI is 603. In experiment [2], this molecule gave a % positive of 1.3% and an MFI of 184.

B16: 32A10 (antibody, V domains shown)
VH: QVTLKESGPVLVKPTETLTLTCTVSGFSLSNARMGVSWIRQPPGKALEWLAHIFSTDEKSIRRSLRSRLTLSKDTSKSQVVLTMTNMDPVDTATYFCARDSSNYEGYFDYWGQGTLVTVSS
VL: EVVMTQSPATLSVSPGERVTLSCRASQSVSSNFAWYQQRPGQAPRLLLYGATTRATGLPGRFSGSGSGTENILTISSLQSEDFAIYFCQQYKDWPFTFGPGSKVDIK
Take B16: the MFI amounted to 531 in experiment [1] and 185 in experiment [2].

B17: 49B11 (antibody, V domains shown)
VH: QVTLKESGPVLVKPTETLTLTCTVSGFSLSNVRMGVSWIRQPPGKALEWFAHIFSSDEKSIRRSLRSRLTLSKDTSKSQVVLTMTNMDPVDTATYYCARDSSNYEGYFDYWGQGTLVTVSS
VL: EMEVTQSPATLSVSPGERATLSCRASQNIGSDLAWYQQQSGQAPRLLISGASTRATGVPTRFSGSGSGTDFTLTITSLQSEDFAVYYCQQYNDWPFTFGPGTKVDIK
For the molecule B17, in experiment [1], the % positive came to 0.8% and the MFI was 599. In experiment [2], this molecule showed a % positive of 1.3% and an MFI of 185.

Source of the values: patent publication US20190144550A1.
